We go through 2 substances from article PMC4705956.

The target in the series is Asp93 (UniProt position 93, WARYADWLFTT). The series is described as follows: UV-vis. The note with it: 298 K; 100 mM NaCl (Fig. 7 caption); the Methods state 4 M NaCl for UV-visible spectroscopy; Not stated for the titration; the Methods give 50 mM Tris-HCl for UV-visible samples; Folded, retinal-bound, detergent-solubilised. Light or dark adaptation is not stated.

With “Bacteriorhodopsin (HwBR) (Haloquadratum walsbyi)”, the pKa (as a rule, the pH at which an ionisable group is half protonated) stood at 1.97.

On to “Bacteriorhodopsin (HwBR) R82E mutant (Haloquadratum walsbyi; R82E)”, for which the pKa is on record as 2.24.
